# Patent US20190381169A1, “PHARMACEUTICAL COMBINATIONS FOR IMMUNOTHERAPY” (Technische Universitat Dresden, priority 2014, published 2019)
# Biological target: T1, p75^NTR (Homo sapiens, UniProt P08138)
# T1 sequence (P08138 29-427): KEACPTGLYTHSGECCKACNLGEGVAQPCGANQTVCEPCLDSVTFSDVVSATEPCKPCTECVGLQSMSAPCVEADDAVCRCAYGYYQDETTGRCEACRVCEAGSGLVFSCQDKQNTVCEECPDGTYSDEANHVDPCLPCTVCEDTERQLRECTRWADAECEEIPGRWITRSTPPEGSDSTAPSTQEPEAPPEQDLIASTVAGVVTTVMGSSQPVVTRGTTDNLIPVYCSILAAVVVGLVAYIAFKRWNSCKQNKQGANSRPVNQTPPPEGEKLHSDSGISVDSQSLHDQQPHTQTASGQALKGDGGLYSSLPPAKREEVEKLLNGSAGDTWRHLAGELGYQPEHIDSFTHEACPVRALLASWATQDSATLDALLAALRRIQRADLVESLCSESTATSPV
# Test: IL-6 produced by anti-FcεRIα activated human PDC (ELISA)
# Assay type: cell-based
# Parameters: nerve growth factor receptor p75^NTR, which is expressed by human and murine plasmacytoid dendritic cells (PDC); endogenous in cells; host or cells: primary human plasmacytoid dendritic cells (BDCA-4+ selection) from buffy coats or from peripheral blood of allergic donors
# Conditions: anti-FcεRIα-FITC activated PDC with NGF 25 ng/ml vs without NGF; p=0.0066
# Method: PDC isolated from peripheral blood were taken in RPMI 1640 medium (PAA) with penicillin G (100 U/ml), streptomycin ([…]), L-glutamine (2 mM), 10% heat inactivated FBS and IL-3 (R&D system) at 10 ng/ml. 2×10^5 cells were seeded per well in 200 μl medium in U-shaped bottom 96-well plate and incubated at 5% CO2 and 37° C. For IL-6 generation, mouse anti human FcεRI alpha-FITC (eBioscience) was added at 250 ng/ml to designated wells. p75^NTR blocking peptide TAT-Pep5 (Calbiochem) was employed at 100 nM to designated wells. NGF (R&D Systems) was added at concentration of 25 ng/ml to specified wells. All components were added following the sequence mentioned After 14 hour's stimulation the plate was centrifuged (270 g for 5 minutes). Supernatant was analyzed for IL-6 by ELISA (Bender MedSystems).
# IL-6 ELISA was carried out following manufacturer's specifications with few modifications. […] Absorbance of whole plate was read on spectrophotometer at 450 nm as primary wave length and 620 nm as reference wave length. […]
# We activated peripheral blood purified PDC by cross linking FcεRIα with anti-FcεRIα-FITC in the presence and absence of NGF at 25 ng/ml in-vitro. Supernatant was harvested after 12 hrs of activation and amount of IL-6 secreted was determined by ELISA. We have analysed 18 buffy coat samples.
substance,measurement,value
"NGF: Nerve growth factor, best characterized neurotrophin; natural p75^NTR agonist (R&D Systems)",production of IL-6,significantly increased
